Results taken from article PMC12259648.
pKd: −log10 of the molar value.

Experiments:
[1] = target: 212579 T40HN, I29LV, T40LA, V108LG (human); experiment: SPR; Biacore 1K+; purified IgG captured (about 100 RU) on anti-human IgG (Fc) on a CM5 chip; Phl p 5 injected at 1.875-60 nM, 25 uL/min, 120 s, 1360 s dissociation; PBS with 0.02% Tween 20; 1:1 Langmuir model
[2] = target: 212579 T40HN, I53HV, H113HY (human); experiment: as above
212579 T40HN (human) = experiment: as above
212579 E38HS (human) = experiment: as above
212579 G62HS (human) = experiment: as above
[3] = target: 212579 I53HV, I29LV, T40LA, V108LG (human); experiment: as above
[4] = target: 212579 T40HN, I53HV (human); experiment: as above
212579 I53HV (human) = experiment: as above
[5] = target: 212579 I29LV, T40LA, V108LG (human); experiment: as above
212579 H113HY (human) = experiment: SPR; Biacore 1K+; antibody 212579 H113HY captured from culture supernatant without prior purification on anti-human IgG (Fc) on a CM5 chip; Phl p 5 injected at 1.875-60 nM; PBS with 0.02% Tween 20; 1:1 Langmuir model

Substance: Phl p 5.0101 (natural protein)
- pKd [1]: 8.37
- koff [1]: 0.0005 s⁻¹
- kon [1]: 120000 M⁻¹ s⁻¹
- pKd [2]: 9.04
- koff [2]: 0.00014 s⁻¹
- kon [2]: 160000 M⁻¹ s⁻¹
- pKd (212579 T40HN (human)): 9.31
- koff (212579 T40HN (human)): 0.00016 s⁻¹
- kon (212579 T40HN (human)): 320000 M⁻¹ s⁻¹
- pKd (212579 E38HS (human)): 8.00
- koff (212579 E38HS (human)): 0.00273 s⁻¹
- kon (212579 E38HS (human)): 280000 M⁻¹ s⁻¹
- pKd (212579 G62HS (human)): 9.57
- koff (212579 G62HS (human)): 0.00011 s⁻¹
- kon (212579 G62HS (human)): 420000 M⁻¹ s⁻¹
- pKd [3]: 8.82
- koff [3]: 0.00033 s⁻¹
- kon [3]: 220000 M⁻¹ s⁻¹
- pKd [4]: 9.25
- koff [4]: 0.00014 s⁻¹
- pKd (212579 I53HV (human)): 9.51
- koff (212579 I53HV (human)): 0.00013 s⁻¹
- kon (212579 I53HV (human)): 420000 M⁻¹ s⁻¹
- pKd [5]: 8.82
- koff [5]: 0.00035 s⁻¹
- kon [5]: 230000 M⁻¹ s⁻¹
- pKd (212579 H113HY (human)): 8.85
- koff (212579 H113HY (human)): 0.00036 s⁻¹
- kon (212579 H113HY (human)): 260000 M⁻¹ s⁻¹
